Earlier results as cited in publication PMC11988805.

Assays:
[1] = biological target: unstapled BH3 peptide BH3 (Homo sapiens) (UniProt P55957)
[2] = biological target: stapled BH3 peptide BH3 (Homo sapiens) (UniProt P55957)

Substance: Bcl-2 (from UniProt P10415)
- Kd [1]: 269 nM
- Kd [2]: 38.8 nM
